Legend:
hEXOG-R314A [1] = target: T1, hEXOG-R314A (human, UniProt Q9Y2C4 59-368, R314A;del2-58); assay: EMSA; 20 mM EDTA; apparent Kd; EK140: 20 mM HEPES pH 7.5, 140 mM KCl, 1 mM TCEP, 5% glycerol; plus 20 mM EDTA for anisotropy and EMSA (gel at 4 C, 0.5x TBE with 20 mM EDTA); ITC in EK140 at 20 C; conditions: protein: recombinant; tags: C-terminal His-tag; chain copies: 2; label: 5'-32P; 10 bp duplex
[2] = target: T2, hEXOG wild type (hEXOG-dN58) (human, UniProt Q9Y2C4 59-368, del2-58); assay: as above; conditions: protein: recombinant; tags: C-terminal His-tag; chain copies: 2; label: 5'-32P; 10 bp duplex
hEXOG-R314A [3] = target: T1, hEXOG-R314A; assay: fluorescence anisotropy; 20 mM EDTA; apparent Kd; EK140: 20 mM HEPES pH 7.5, 140 mM KCl, 1 mM TCEP, 5% glycerol; plus 20 mM EDTA for anisotropy and EMSA (gel at 4 C, 0.5x TBE with 20 mM EDTA); ITC in EK140 at 20 C; conditions: protein: recombinant; tags: C-terminal His-tag; chain copies: 2; label: 3'-fluorescein; 10 bp duplex
[4] = target: T2, hEXOG wild type (hEXOG-dN58); assay: fluorescence anisotropy; 20 mM EDTA; apparent Kd (main text 6.2); EK140: 20 mM HEPES pH 7.5, 140 mM KCl, 1 mM TCEP, 5% glycerol; plus 20 mM EDTA for anisotropy and EMSA (gel at 4 C, 0.5x TBE with 20 mM EDTA); ITC in EK140 at 20 C; conditions: protein: recombinant; tags: C-terminal His-tag; chain copies: 2; label: 3'-fluorescein; 10 bp duplex
hEXOG-H140A = hEXOG-H140A (human, UniProt Q9Y2C4 59-368, H140A;del2-58); assay: X-ray crystallography; 1.85 A; DNA in both active sites; EK140: 20 mM HEPES pH 7.5, 140 mM KCl, 1 mM TCEP, 5% glycerol; plus 20 mM EDTA for anisotropy and EMSA (gel at 4 C, 0.5x TBE with 20 mM EDTA); ITC in EK140 at 20 C; conditions: protein: recombinant; tags: C-terminal His-tag; chain copies: 2; 10 bp duplex; two duplexes per dimer
[5] = target: T2, hEXOG wild type (hEXOG-dN58); assay: fluorescence anisotropy; 20 mM EDTA; apparent Kd; EK140: 20 mM HEPES pH 7.5, 140 mM KCl, 1 mM TCEP, 5% glycerol; plus 20 mM EDTA for anisotropy and EMSA (gel at 4 C, 0.5x TBE with 20 mM EDTA); ITC in EK140 at 20 C; conditions: protein: recombinant; tags: C-terminal His-tag; chain copies: 2; label: 3'-fluorescein; 10 bp duplex

B1: 10 bp dsDNA, 5'-32P (dsDNA)
DNA 1: CTGACGTGCG
DNA 2: CGCACGTCAG
modifications: 5'-phosphate (32P)
In the case of B1, the Kd (hEXOG-R314A [1]) is reported as 26.5 ± 6.6 nM and the Kd [2] is reported as 3.4 ± 1.2 nM.

B2: 10 bp 5'P-dsDNA, 3'-fluorescein (dsDNA)
DNA 1: CTGACGTGCG
DNA 2: CGCACGTCAG
modifications: 5'-phosphate on one strand
For B2, the Kd (hEXOG-R314A [3]) was 35.7 ± 7.2 nM and the Kd [4] was 6.25 ± 2 nM.

B3: 10 bp DNA for crystallization (dsDNA)
DNA 1: CTGACGTGCG
DNA 2: CGCACGTCAG
modifications: 5'-phosphate on one strand only
B3: binds (hEXOG-H140A).

B4: 10 bp 5'OH-dsDNA, 3'-fluorescein (dsDNA)
DNA 1: CTGACGTGCG
DNA 2: CGCACGTCAG
modifications: 5'-OH
For B4, the Kd [5] was 22.2 ± 5.1 nM.

Source: article PMC5418593
